Test: soluble on expression in E. coli; label from the status in PepcDB or PDB records

Soluble on expression in E. coli, soluble:
MSLDVPAMPERVETQGVEFVEFSTAPEEKANLEVLLATLGFEKSAQHRNRAVDLYTQGDIRIVINTSDDGDSFAGASYSIHGTNAYAFGLKVDDAQAALARAEALGAPTFAEPRNTGEVAVPAIQGVGNGVIYFLDASPALASIWDKEFVPTQGQKAMSDAGLTRVDHLAQTTHYDEMLTWLLFYTSLFSSRRTPMIDVVDPGGLVRSQAIESVPAANFRLTMNGADNRKTFAGKFLAEGFGSSIQHIAFATDDIFATAKAMQARGFHALPISRNYYDDLEARFGLEPEFSDALREASILYDRDDSGEYFQIYSRTFGEGFFFEVIERRGAYGGYGAMNAPFRIAAQRRLAEGHHHHHH
MAHHHHHHSLCPCPHSQAQGETDGEAEWHNAALDFTHAMSYGDYLKLDKVLDAQFPLSPDHNEMLFIIQHQTSELWMKLMLHELRAAREHVKSGKLGPALKMLARVSRIFDQLVHAWAVLATMTPTEYNTIRPYLGQSSGFQSYQYREIEFILGNKNATLLKPHAHRAELLAALEQALHTPSLYDEAIRLMAAQGLPVSQERLARDAAAGTCYEASVEAAWRQVYQAPERYWDLYQLAEKLIDLEDSFRQWRFRHVTTVERIIGFKPGTGGTEGVGYLRSMLDTILFPELWRLRSNEG
LSNGQGSRVLHVVQTLYPFSSVTEEELNFEKGETMEVIEKPENDPEWWKCKNARGQVGLVPKNYVVVLSDGPALHPAH
SHMRVLVCGGAGYIGSHFVRALLRDTNHSVVIVDSLVGTHGKSDHVETRENVARKLQQSDGPKPPWADRYAALEVGDVRNEDFLNGVFTRHGPIDAVVHMCAFLAVGESVRDPLKYYDNNVVGILRLLQAMLLHKCDKIIFSSSAAIFGNPTMGSVSTNAEPIDINAKKSPESPYGESKLIAERMIRDCAEAYGIKGICLRYFNACGAHEDGDIGEHYQGSTHLIPIILGRVMSDIAPDQRLTIHEDASTDKRMPIFGTDYPTPDGTCVRDYVHVCDLASAHILALDYVEKLGPNDKSKYFSVFNLGTSRGYSVREVIEVARKTTGHPIPVRECGRREGDPAYLVAASDKAREVLGWKPKYDTLEAIMETSWKFQRTHPNGYASQENGTPGGRTTKL
AGMSEAPRAETFVFLDLEATGLPSVEPEIAELSLFAVHRSSLENPEHDESGALVLPRVLDKLTLCMCPERPFTAKASEITGLSSEGLARCRKAGFDGAVVRTLQAFLSRQAGPICLVAHNGFDYDFPLLCAELRRLGARLPRDTVCLDTLPALRGLDRAHSHGTRARGRQGYSLGSLFHRYFRAEPSAAHSAEGDVHTLLLIFLHRAAELLAWADEQARGWAHIEPMYLPPDDPSLEA
MSLQEKQLKTIQNKIASWIKEIESAFIDELFSKIGPSKMLRSKLMLALLNEKTDAILLDKAFNLCAIVEMIQTASLLHDDVIDKAAMRRKLPSINALFGNFNAVMLGDVFYSKAFFELSKMGESIAKSLSNAVLRLSRGEIEDVFVGGSFNSDKQKYWRILEDKTAHFIEASLKSMAILLNKDAKMYADFGLNFGMAFQIIDDLLDITQDAKTLGKPNFSDFKEGKTTLPYLLLYEKLNQRDQGLLISYFKQDSHEIIEWTKEKFKQYGTIEETLKIAQVYSKKALEAIKGENNLILEKLAQDVIYRTFEGHHHHHH
MSLCGIVAFYYPEINDKQAAIGKMMATIQHRGPSSDGMYTNDKVALGFRRLSIIDLRCGSQPIYNEDRSRAIIFNGEIYNFKPLREELIKAGHTFSTKADTEVILHGYEEWGMDGILKRVRGMFAFIIWDDNTQTMYGARDFFGIKPMYYQDVDGHLLVGSELKSFLAFPHFKKELNTEAVKPYLMNQYNDLKETFFKGVYRFQPGHWFEYKDGKMKTHQYWDAEYKDNNLSFEETVKKINEDLKETVDLYRNADVKVGAFLSEGVDSSFLTALLDPDEVFSIGFDDNTYDEASKAKALADINGWHFYADKVYSEEAMRDFPEMQYHMDEPDANPSIIPLWYLCKLARKHVTVALSGEGADELFAGYVNYGMHTHNNVIKVFTDKLKKLPKGKRVKLAHKIKKMPNFPGKVHLYTNLAEPSEFYVGQSVIYDMDYPTIFTSKDANAVLQPSYRNKLTVNGNYQEDFKKVKDLDNVKQMQYIDLHHFMLNDIEQKADKISMAHSLELRVPYLDVKIAKLANSIPSKYLVNKYDTKYALRKASEQVLPDEWAKRPKLGFPTPIKQWLQEERFYKQVRDLFSEDFVNDIFEQKKILDLLDENYNGDGSHRRQIWVIYTFLVWYKLFFVDYEEGHHHHHH
MDPAKNEYGMGSTLTTLAYEKFAKAAKYNTQQNDLAAPTAQLDIAVSLSGFKEGDSNYPINPILKLTNNSTQTIPGGTRIEFLVPTSTSDTITDQSGMGLKVVESGGNQNSDGIAGEKDFHKAAFTLPTWKAWAPGSDVEVAMTYYLPAAGVPSGIRIISGTQTAGLKAEFPTLPEAVLEHHHHHH

Soluble on expression in E. coli, not soluble:
MSEIHAGGCHCGRLRYQFDAPLKDIAHCHCSICWRTSGATVVTWISVPLASFKWLTGSPAAYDSAATCVRYFCGNCGAHMALFTRNSPNEMDVTIATLDQPELAVPSRHIWIENRLPWLHLDEDLPGDEGEP
MSKTYHFIGIKGSGMSALALMLHQMGHNVQGSDVDKYYFTQRGLEQAGVTILPFSPNNISEDLEIIAGNAFRPDNNEELAYVIEKGYQFKRYHEFLGDFMRQFTSLGVAGAHGKTSTTGLLAHVLKNITDTSFLIGDGTGRGSANANYFVFEADEYERHFMPYHPEYSIITNIDFDHPDYFTGLEDVFNAFNDYAKQVQKGLFIYGEDPKLHEITSEAPIYYYGFEDSNDFIAKDITRTVNGSDFKVFYNQEEIGQFHVPAYGKHNILNATAVIANLYIMGIDMALVAEHLKTFSGVKRRFTEKIIDDTVIIDDFAHHPTEIIATLDAARQKYPSKEIVAIFQPHTFTRTIALLDEFAHALSQADSVYLAQIYGSAREVDNGEVKVEDLAAKIVKHSDLVTVENVSPLLNHDNAVYVFMGAGDIQLYERSFEELLANLTKNTQ
MEAIKDKERKERRDKKLAIANLAAKQKREKKKQQKNGAELAARARKAKAEKAKTSEPPAQGVVTRAAAQKAREAAQAANHQ
MGSDKIHHHHHHMNDDFLFSDDEPDIAEEEVSEPYNILIVDDDEEIHTITKMALGEFKLDGRPLKFHSVYSGKDAIAFLQDNTNIAMMLLDVVMETDHAGLDVAQWVRETRKNRLIRIVLRTGQPGQAPEEDVIARYDIDDYKEKTELTYRKLVTLMYSCLRAYRDLNAIERNKRGLEKVINASAEVFSARSMQALCQGILEQLVALITLSDDAMYCRIDALTASSDTDDPFEIIGGTGEYEEAVGQPVHGEIDWDIVRPMQQSPQNVDFRIVDGNYYGLYKTSSSRQYLLFIRGVRDLSELDQNLLGLFVNNSSIAIDNLQATENEREAQRELLYSVGEAIEKHSIDEISHHVKRSAEMAGQLAIFSGATQEQAEALKQAASVYDIGKVSVQMELAQRADVLSIHEYEEIMQKVIQGHDYLRQTDSAVAKVAALIAQDIHERWNGSGFPSQKSAKAIDLNARILSITSHFDALRTQRNYRDAKESEDAADYLLQHSGKFFDPELVGLMLDNLDAMEKIRQRFLDKKQDTRH
QAFVSAQTSTIPKTAFTAHDFVDYTLPQEQKGKEQKEQQWMKNSQTKDTDVHPYADFAVLEILLFPDSSTDRKIFNHFIQPAIRAYKQLGDSLNIFANQTLDQPKHNRYYLLGYPFLRNKAASLFLNQTEQRKEHMDKTTQILHEKPFVVLTDPAKPTLIRNKGANFTGNTWTSNYDL
MSLALDGKSLSGFSHVHVGSLYNAEALEKSVEEMQVETSRRGYAFAVVRPRGDRNFDAHTVSIVFAIDEGPRTYIERINIRGNTRTRDYVIRREFDISEGDAYNRSLVDRAERRLKNLDFFKTVKITTEPGSSSDRVILDVDVEDKSTGDFSVSGGYSTTQGALAEVSVSERNLLGRGLYAKASVQYGQYARGYSLSFVEPYLLDYRVALGLDFYQREQLANQYISYNIKTLGFSPRLGFGLREDLTLQLRYSIFRQEIGLPTSLRNCNNNIGGPNYNPSPAFLNSIGQFNPNNPTLGCYSDGEASLPIRQELGGQTLTSMLGYTLTYNTLDNNKNPTDGLLIDFRQDFAGVGGDVKYLKTAIDAKYYQPLVSDIVGLVHLQGGILNNVGAYAGQNGIRMLDNFQMGPNLVRGFAPNGIGPRDINFLSTMDALGGTQYWGASVELQMPFWFLPKEVGLKGAVYADAGSLWGYKGPTSNLATNEFNAPGCMPSTSRSNPGTCAGLQFDDTNVVRTSVGVGLIWQSPFGPLRFDYAVPITKGKYDRVQEFRFGGGTTEGHHHHHH
PLRLALSKLLVKANQPSAALSPLVHLPPMPSRDYLAMRAALAQKQKQNDIALESYQLLTQREPDNARWWLGLAIQQERALTFTAAINSYNEALGKVGISNQSQAFIRDRLTILKQLESAQ
MDYQERLKNLPPEVMTAFSESFIFLISNDKVQHFPARDLTQAEMIQRVKEKLGEAVTWSLWQGFVIAVNSEETCVAVLPKYYQLDGFENE
MANIEIYTKATCPFCHRAKALLNSKGVSFQEIAIDGDAVKREEMIKRSGRTTVPQIFIDAQHIGGCDDLYALDARGGLDPLLR
MGSDKIHHHHHHMSHVSYAEPPAQGWDIHCHTVFSDGTETPRTLVEQARKLGLHGVAIADHDTTAGWDEATEASEEIGLPLLLGTEITAVDEDVSVHMLAFQYDPSNEHISSMFANTRAARLRRTKRMVERLSQDFPITWDDVLAQVKEGERTTIGRPHIADALVAAGVYETRSDAFADAVSAKSKYYIPTPSPSTHEVIAAVKGAGGVVVAAHAGDPQRNRRLLSDEQLDAMIADGLDGLEVWHRGNPPEQRERLLTIAARHDLLVTGGSDWHGKGKPNGLGENLTDDDTVREILCRGVDLIGRVGSSHAA
MGSDKIHHHHHHMNFQQCRYVEAIANTGSFSEAAKKLYVTQPNLSSSIKELENDLGVQLFIRSNTGARLTDDGYDFLKYAKRILGEADLLKKRYQDNYKKSFTISSHHYDFLAIPLLEIAEKFKKDFQHFHLIETTTKKILESVLNFESDLGILYLNDDNRHILERYFKQHDLAFTPLGDFPTRIFLRKDHPLAQQKVIEKVQLKDYKQVRFRQEISGLNFDEDTLDIPENQSVFYSNDRGTIMNILCGSDAYASGLGIVNSFIKDQIVLIPLKDSKMHTLGFVSNKRKQETDITQQFITAVKNSLRTYERGTQL
NVKQQFFPPSNTPMFYVDMWMPEGTDIRQTIKQAEKVESYIRQQDDIDFVSVSIGQGLQRFALTYQPEKSYEAYAQFQVRTTDRDNMFKLLHKLDDNLAKTFDEPTFQFKLMEFGPSPASKIEARITGPDPKVLRELAVQVEDILHTDPGARNIRHDWRERTKELVPVFNESKARRLGISKEDLSSTLQMAFGGSTFGVLRDGTHTLPIMMRLPEAERVDFESLQNVKIWSPSLQTYIPVDQIIDGVELDWSEPLIQRRDRKRTLTVLADHDVLSDDTAASLFARVQPKVMALHIPEGYEITWGGEYESSKDAQE
GPGSMLSTIKTRPQGPYCGDYFSIVEGRVDFPVDLDTFDISLTISGDVEECKNEPYVYDEVSGNVELTNAQDPGDCLGSILRRNQLTLMVTYHPDDDKISLDFGIAVVNLSPCP
MEEALKENIMGALEQVVDPELGVDIVNLGLVYDVDMDEDGLTHITMTLTSMGCPLAPIIVDEVKKALADLPEVKDTEVHIVWNPPWTRDKMSRYAKIALGIQLEHHHHHH

Reference: the DeepSol protein solubility set
